Biological target: TX-100 cytoskeleton
Test: detergent extraction

- gp135 remaining (%) with the TX-100 cytoskeleton, 48-h cultures: 66.2%
- gp135 remaining (%) with the TX-100 cytoskeleton, 72-h cultures: 53.4%
B1: 135-kD glycoprotein (gp135) (natural protein)
chain: HDGTIIAATSPTSGQPSTELPGGKGLITTAKTIQNTDLAITGEKVMSATVSKGPLPGSSNSVSMTLAPTQKNTVIAPDQDEKVSTNPTIATSDSKGIPDLNKSILPSATNSMKPDTPVTQTAGPGAQGNPGTTVSHMTSENTEQTTSQPPPQVKPSSITPALTSIITPTSPRQPSANSTTLKPPESSSESPDKSHTASSSLGTKVVPSSSLYGTSPTRTSSVTFWGGPQSSSGTPPVPAPTPRPAATSSSTPGISSVPGTTSLPSETESLESPSSESPSQPPKLRPTGPPSSGSSGPAASLPDEGPRSSSTQRAATAPRAPSVPSPTSAQGDDRIKCESPGRLTDKMLLLNLTRSGLCAGNNSDDKLITLLCRAAKATFNPAQDQCHIRLVPIQDTQAVAIKEITVQTNLLPRDVYELLKDKWDELKEVGVSNMKLGDQGPPEETEDRFSMPLIITIVCMASFLLLVAALYGCCHQRLSQRKDQQRLTEELQTVENGYHDNPTLEVMETSSEMQEKKVVNLNGELGDSWIVPLDNLAKDDLDEEEDTHL

Reference: paper PMC2115640
